Sequences and labels used below:
B1: scDb/scFv-Fc (1-2)+3, trivalent trispecific anti-EGFRxanti-HER3×anti-CD3 (other)
chain 1: QVQLQQSGPGLVKPSQTLSLTCAISGDSVSSNRAAWNWIRQSPSRGLEWLGRTYYRSKWYNDYAQSLKSRITINPDTPKNQFSLQLNSVTPEDTAVYYCARDGQLGLDALDIWGQGTMVTVSSGGGGSDIQMTQSPSSLSASVGDRVTITCRASQDIRNYLNWYQQKPGKAPKLLIYYTSRLHSGVPSRFSGSGSGTDFTFTISSLQPEDIATYYCQQGNTLPWTFGQGTKLEIKRGGGGSGGGGSGGGGSQVQLVQSGAEVKKPGSSVKVSCKASGGTFSGYTMNWVRQAPGQGLEWMGLINPYKGVSTYNGKFKDRVTITADKSTSTAYMELSSLRSEDTAVYYCARSGYYGDSDWYFDVWGQGTLVTVSSGGGGSQAGLTQPPAVSVAPGQTASITCGRDNIGSRSVHWYQQKPGQAPVLVVYDDSDRPAGIPERFSGSNYENTATLTISRVEAGDEADYYCQVWGITSDHVVFGGGTKLTVLAAADKTHTCPPCPAPPVAGPSVFLFPPKPKDTLMISRTPEVTCVVVDVSHEDPEVKFNWYVDGVEVHNAKTKPREEQYNSTYRVVSVLTVLHQDWLNGKEYKCKVSNKGLPSSIEKTISKAKGQPREPQVCTLPPSRDELTKNQVSLSCAVKGFYPSDIAVEWESNGQPENNYKTTPPVLDSDGSFFLVSKLTVDKSRWQQGNVFSCSVMHEALHNHYTQKSLSLSPGK
chain 2: EVQLVESGGGLVQPGGSLRLSCAASGFSLTNYGVHWVRQAPGKGLEWLGVIWSGGNTDYNTPFTSRFTISRDNSKNTLYLQMNSLRAEDTAVYYCARALTYYDYEFAYWGQGTTVTVSSGGGGSGGGGSGGGGSDIQLTQSPSFLSASVGDRVTITCRASQSIGTNIHWYQQKPGKAPKLLIKYASESISGVPSRFSGSGSGTEFTLTISSLQPEDFATYYCQQNNNWPTTFGAGTKLEIKRAAADKTHTCPPCPAPPVAGPSVFLFPPKPKDTLMISRTPEVTCVVVDVSHEDPEVKFNWYVDGVEVHNAKTKPREEQYNSTYRVVSVLTVLHQDWLNGKEYKCKVSNKGLPSSIEKTISKAKGQPREPQVYTLPPCRDELTKNQVSLWCLVKGFYPSDIAVEWESNGQPENNYKTTPPVLDSDGSFFLYSKLTVDKSRWQQGNVFSCSVMHEALHNHYTQKSLSLSPGK
notes: Trispecific antibody: 1 = HER3 (3-43), 2 = CD3 (huU3), 3 = EGFR (hu225); also called scDb3-43xhuU3-Fc(hole)Δab + scFvhu225-Fc(knob)Δab
B2: scDb/scFv-Fc (2-1)+3, trivalent trispecific anti-EGFRxanti-HER3×anti-CD3 (other)
chain 1: QVQLVQSGAEVKKPGSSVKVSCKASGGTFSGYTMNWVRQAPGQGLEWMGLINPYKGVSTYNGKFKDRVTITADKSTSTAYMELSSLRSEDTAVYYCARSGYYGDSDWYFDVWGQGTLVTVSSGGGGSQAGLTQPPAVSVAPGQTASITCGRDNIGSRSVHWYQQKPGQAPVLVVYDDSDRPAGIPERFSGSNYENTATLTISRVEAGDEADYYCQVWGITSDHVVFGGGTKLTVLGGGGSGGGGSGGGGSQVQLQQSGPGLVKPSQTLSLTCAISGDSVSSNRAAWNWIRQSPSRGLEWLGRTYYRSKWYNDYAQSLKSRITINPDTPKNQFSLQLNSVTPEDTAVYYCARDGQLGLDALDIWGQGTMVTVSSGGGGSDIQMTQSPSSLSASVGDRVTITCRASQDIRNYLNWYQQKPGKAPKLLIYYTSRLHSGVPSRFSGSGSGTDFTFTISSLQPEDIATYYCQQGNTLPWTFGQGTKLEIKRAAADKTHTCPPCPAPPVAGPSVFLFPPKPKDTLMISRTPEVTCVVVDVSHEDPEVKFNWYVDGVEVHNAKTKPREEQYNSTYRVVSVLTVLHQDWLNGKEYKCKVSNKGLPSSIEKTISKAKGQPREPQVCTLPPSRDELTKNQVSLSCAVKGFYPSDIAVEWESNGQPENNYKTTPPVLDSDGSFFLVSKLTVDKSRWQQGNVFSCSVMHEALHNHYTQKSLSLSPGK
chain 2: EVQLVESGGGLVQPGGSLRLSCAASGFSLTNYGVHWVRQAPGKGLEWLGVIWSGGNTDYNTPFTSRFTISRDNSKNTLYLQMNSLRAEDTAVYYCARALTYYDYEFAYWGQGTTVTVSSGGGGSGGGGSGGGGSDIQLTQSPSFLSASVGDRVTITCRASQSIGTNIHWYQQKPGKAPKLLIKYASESISGVPSRFSGSGSGTEFTLTISSLQPEDFATYYCQQNNNWPTTFGAGTKLEIKRAAADKTHTCPPCPAPPVAGPSVFLFPPKPKDTLMISRTPEVTCVVVDVSHEDPEVKFNWYVDGVEVHNAKTKPREEQYNSTYRVVSVLTVLHQDWLNGKEYKCKVSNKGLPSSIEKTISKAKGQPREPQVYTLPPCRDELTKNQVSLWCLVKGFYPSDIAVEWESNGQPENNYKTTPPVLDSDGSFFLYSKLTVDKSRWQQGNVFSCSVMHEALHNHYTQKSLSLSPGK
notes: Trispecific antibody: 1 = HER3, 2 = CD3, 3 = EGFR; also called scDbhuU3x3-43-Fc(hole)Δab + scFvhu225-Fc(knob)Δab
B3: scDb/Fab-Fc (1-2)+3, trivalent trispecific anti-EGFRxanti-HER3×anti-CD3 (other)
chain: QVQLQQSGPGLVKPSQTLSLTCAISGDSVSSNRAAWNWIRQSPSRGLEWLGRTYYRSKWYNDYAQSLKSRITINPDTPKNQFSLQLNSVTPEDTAVYYCARDGQLGLDALDIWGQGTMVTVSSGGGGSDIQMTQSPSSLSASVGDRVTITCRASQDIRNYLNWYQQKPGKAPKLLIYYTSRLHSGVPSRFSGSGSGTDFTFTISSLQPEDIATYYCQQGNTLPWTFGQGTKLEIKRGGGGSGGGGSGGGGSQVQLVQSGAEVKKPGSSVKVSCKASGGTFSGYTMNWVRQAPGQGLEWMGLINPYKGVSTYNGKFKDRVTITADKSTSTAYMELSSLRSEDTAVYYCARSGYYGDSDWYFDVWGQGTLVTVSSGGGGSQAGLTQPPAVSVAPGQTASITCGRDNIGSRSVHWYQQKPGQAPVLVVYDDSDRPAGIPERFSGSNYENTATLTISRVEAGDEADYYCQVWGITSDHVVFGGGTKLTVLAAADKTHTCPPCPAPPVAGPSVFLFPPKPKDTLMISRTPEVTCVVVDVSHEDPEVKFNWYVDGVEVHNAKTKPREEQYNSTYRVVSVLTVLHQDWLNGKEYKCKVSNKGLPSSIEKTISKAKGQPREPQVCTLPPSRDELTKNQVSLSCAVKGFYPSDIAVEWESNGQPENNYKTTPPVLDSDGSFFLVSKLTVDKSRWQQGNVFSCSVMHEALHNHYTQKSLSLSPGK
heavy: EVQLVESGGGLVQPGGSLRLSCAASGFSLTNYGVHWVRQAPGKGLEWLGVIWSGGNTDYNTPFTSRFTISRDNSKNTLYLQMNSLRAEDTAVYYCARALTYYDYEFAYWGQGTTVTVSSASTKGPSVFPLAPSSKSTSGGTAALGCLVKDYFPEPVTVSWNSGALTSGVHTFPAVLQSSGLYSLSSVVTVPSSSLGTQTYICNVNHKPSNTKVDKKVEPKSCGTDKTHTCPPCPAPPVAGPSVFLFPPKPKDTLMISRTPEVTCVVVDVSHEDPEVKFNWYVDGVEVHNAKTKPREEQYNSTYRVVSVLTVLHQDWLNGKEYKCKVSNKGLPSSIEKTISKAKGQPREPQVYTLPPCRDELTKNQVSLWCLVKGFYPSDIAVEWESNGQPENNYKTTPPVLDSDGSFFLYSKLTVDKSRWQQGNVFSCSVMHEALHNHYTQKSLSLSPGK
light: DIQLTQSPSFLSASVGDRVTITCRASQSIGTNIHWYQQKPGKAPKLLIKYASESISGVPSRFSGSGSGTEFTLTISSLQPEDFATYYCQQNNNWPTTFGAGTKLEIKRTVAAPSVFIFPPSDEQLKSGTASVVCLLNNFYPREAKVQWKVDNALQSGNSQESVTEQDSKDSTYSLSSTLTLSKADYEKHKVYACEVTHQGLSSPVTKSFNRGEC
notes: Trispecific antibody: 1 = HER3, 2 = CD3, 3 = EGFR; also called scDb3-43xhuU3-Fc(hole)Δab + Fdhu225-Fc(knob)Δab + VLhu225-CLκ
B4: scDb/Fab-Fc (2-1)+3, trivalent trispecific anti-EGFRxanti-HER3×anti-CD3 (other)
chain: QVQLVQSGAEVKKPGSSVKVSCKASGGTFSGYTMNWVRQAPGQGLEWMGLINPYKGVSTYNGKFKDRVTITADKSTSTAYMELSSLRSEDTAVYYCARSGYYGDSDWYFDVWGQGTLVTVSSGGGGSQAGLTQPPAVSVAPGQTASITCGRDNIGSRSVHWYQQKPGQAPVLVVYDDSDRPAGIPERFSGSNYENTATLTISRVEAGDEADYYCQVWGITSDHVVFGGGTKLTVLGGGGSGGGGSGGGGSQVQLQQSGPGLVKPSQTLSLTCAISGDSVSSNRAAWNWIRQSPSRGLEWLGRTYYRSKWYNDYAQSLKSRITINPDTPKNQFSLQLNSVTPEDTAVYYCARDGQLGLDALDIWGQGTMVTVSSGGGGSDIQMTQSPSSLSASVGDRVTITCRASQDIRNYLNWYQQKPGKAPKLLIYYTSRLHSGVPSRFSGSGSGTDFTFTISSLQPEDIATYYCQQGNTLPWTFGQGTKLEIKRAAADKTHTCPPCPAPPVAGPSVFLFPPKPKDTLMISRTPEVTCVVVDVSHEDPEVKFNWYVDGVEVHNAKTKPREEQYNSTYRVVSVLTVLHQDWLNGKEYKCKVSNKGLPSSIEKTISKAKGQPREPQVCTLPPSRDELTKNQVSLSCAVKGFYPSDIAVEWESNGQPENNYKTTPPVLDSDGSFFLVSKLTVDKSRWQQGNVFSCSVMHEALHNHYTQKSLSLSPGK
heavy: EVQLVESGGGLVQPGGSLRLSCAASGFSLTNYGVHWVRQAPGKGLEWLGVIWSGGNTDYNTPFTSRFTISRDNSKNTLYLQMNSLRAEDTAVYYCARALTYYDYEFAYWGQGTTVTVSSASTKGPSVFPLAPSSKSTSGGTAALGCLVKDYFPEPVTVSWNSGALTSGVHTFPAVLQSSGLYSLSSVVTVPSSSLGTQTYICNVNHKPSNTKVDKKVEPKSCGTDKTHTCPPCPAPPVAGPSVFLFPPKPKDTLMISRTPEVTCVVVDVSHEDPEVKFNWYVDGVEVHNAKTKPREEQYNSTYRVVSVLTVLHQDWLNGKEYKCKVSNKGLPSSIEKTISKAKGQPREPQVYTLPPCRDELTKNQVSLWCLVKGFYPSDIAVEWESNGQPENNYKTTPPVLDSDGSFFLYSKLTVDKSRWQQGNVFSCSVMHEALHNHYTQKSLSLSPGK
light: DIQLTQSPSFLSASVGDRVTITCRASQSIGTNIHWYQQKPGKAPKLLIKYASESISGVPSRFSGSGSGTEFTLTISSLQPEDFATYYCQQNNNWPTTFGAGTKLEIKRTVAAPSVFIFPPSDEQLKSGTASVVCLLNNFYPREAKVQWKVDNALQSGNSQESVTEQDSKDSTYSLSSTLTLSKADYEKHKVYACEVTHQGLSSPVTKSFNRGEC
notes: Trispecific antibody: 1 = HER3, 2 = CD3, 3 = EGFR; also called scDbhuU3x3-43-Fc(hole)Δab + Fdhu225-Fc(knob)Δab + VLhu225-CLκ

The assay concerns the target T1, CD3 (UniProt P07766 23-207).
T1 construct: whole, on cells; on cells it stands in the TCR/CD3 complex; also called CD3 on Jurkat cells
Description: flow cytometry, serial dilution on Jurkat cells (CD3-expressing), PE anti-human Fc detection, n = 1. On the procedure: Trivalent, trispecific antibodies were analyzed for their binding to tumor cell lines with different EGFR- and HER3-expression levels (Table 14) by flow cytometry. Adherent cells were washed with PBS and shortly trypsinized at 37° C. Trypsin was quenched with FCS-containing medium and removed by centrifugation (500×g, 5 min.). 1×10⁵ target cells/well (FaDu, LIM1215, SKBR-3, T-47-D, MCF-7 and Jurkat cells) were incubated with a serial dilution of trivalent, trispecific antibodies for 1 h at 4° C. After removing excess of recombinant protein by washing with PBA (PBS, 2% FBS, and 0.02% sodium azide), bound protein was detected using PE-conjugated anti-human Fc mAb (Jackson ImmunoResearch Laboratories Inc). Fluorescence was measured using MACSquant VYB (Miltenyi Biotec) and data were analyzed using FlowJo (Tree Star). Relative median fluorescence intensities (MFI) were calculated as followed: relative MFI=((MFIₛₐₘₚₗₑ-(MFIdetection-MFIcells))/MFIcells).
(A flow cytometer gives signals particle by particle.)
Regarding B1, the midpoint of the response, the EC50, lay at 1.6 nM. This counts as single-digit nanomolar. The result for B2 reads 2.6 nM; that for B3, 0.8 nM; that for B4, 1.1 nM.

The values above are taken from patent publication US20220396635A1 (UNIVERSIT T STUTTGART, published 2022).
